According to publication doi:10.1101/2020.07.13.201285 (bioRxiv, 2020):

Target: the molecule itself
Assay: cross-linking

B1: recombinant human glutamine:fructose-6-phosphate amidotransferase 2 with C-terminal HisTag (rhGFAT2-his) (enzyme, UniProt O94808 2-682, looked up)
chain: CGIFAYMNYRVPRTRKEIFETLIKGLQRLEYRGYDSAGVAIDGNNHEVKERHIQLVKKRGKVKALDEELYKQDSMDLKVEFETHFGIAHTRWATHGVPSAVNSHPQRSDKGNEFVVIHNGIITNYKDLRKFLESKGYEFESETDTETIAKLIKYVFDNRETEDITFSTLVERVIQQLEGAFALVFKSVHYPGEAVATRRGSPLLIGVRSKYKLSTEQIPILYRTCTLENVKNICKTRMKRLDSSACLHAVGDKAVEFFFASDASAIIEHTNRVIFLEDDDIAAVADGKLSIHRVKRSASDDPSRAIQTLQMELQQIMKGNFSAFMQKEIFEQPESVFNTMRGRVNFETNTVLLGGLKDHLKEIRRCRRLIVIGCGTSYHAAVATRQVLEELTELPVMVELASDFLDRNTPVFRDDVCFFISQSGETADTLLALRYCKDRGALTVGVTNTVGSSISRETDCGVHINAGPEIGVASTKAYTSQFISLVMFGLMMSEDRISLQNRRQEIIRGLRSLPELIKEVLSLEEKIHDLALELYTQRSLLVMGRGYNYATCLEGALKIKEITYMHSEGILAGELKHGPLALIDKQMPVIMVIMKDPCFAKCQNALQQVTARQGRPIILCSKDDTESSKFAYKTIELPHTVDCLQGILSVIPLQLLSFHLAVLRGYDVDFPRNLAKSVTVE
Q: How did the “stoichiometry N” value turn out when B1 was run?
A: 4
